Experimental data: PMC4999191

Target: calmodulin (CaM agarose beads) (UniProt P62157)
Assay: pull-down with CaM-agarose beads, immunoblot (band quantification printed under the lanes)
Conditions: parent: 100

percent of parent	Substance
116	PC1-p30, soluble polycystin-1 cytoplasmic tail R4150C
29	PC1-p30, soluble polycystin-1 cytoplasmic tail L4137P
